Read-outs that look alike come from different tables or passages of the source. Where a SMILES comes first, the peptide text is derived from it. Where no end group is shown, it is not given here. Side-chain parts run from the residue outwards. [ ]: non-standard residue; d: D form. The star is where a group is joined. DOTA = O=C(O)CN1CCN(CC(=O)O)CCN(CC(=O)*)CCN(CC(=O)O)CC1; Palmitoyl = CCCCCCCCCCCCCCCC(=O)*

Data set [1] is described as follows: Stability of radiolabeled conjugates in buffer (radiochemical purity over time). Format: physicochemical. The note with it: NH4-acetate buffer pH 5.2, ethanol, room temperature. The protocol:
The stability of ^177Lu/^68Ga-labeled DOTA-conjugated peptides in ammonium acetate buffer (0.4 M, pH 5.2) and sodium acetate buffer (0.2 M, pH 4-4.5) was assessed by determining the radiochemical purity (RCP) of each radiolabeled conjugate at different time points (0, 1, 2, 4, and 24 h for ^177Lu-complexes and at 0, 1 and 2 h for ^68Ga-complexes) at room temperature. For this, an aliquot of labeling solution was stored at room temperature. RP-HPLC injections were consecutively performed at the desired time points.
Radiolysis-induced instability of [^177Lu]Lu-labeled DOTA-conjugated peptides over time was tracked by determining the radiochemical purity (Table 3). Results are means±standard deviation from a minimum of two separate experiments.

Data set [2] can be described thus: Lipophilicity, shake-flask method (n-octanol/PBS pH 7.4). Format: physicochemical. The protocol: The hydrophilic/lipophilic character of the ^177Lu/^68Ga-labeled conjugates was determined by the “shake-flask” method. To a pre-saturated solution containing 500 μL of n-octanol and 500 μL of phosphate-buffered saline (PBS) at pH 7.4, 10 μL of 1 picomol ^177Lu/^68Ga-labeled conjugates was added. The solutions were vortexed for 1 h to reach equilibrium and then centrifuged (3000 rpm) for 10 min. Hundred μl of the sample was removed from each phase and measured in a γ-counter. The partition coefficient was calculated as the average of the logarithmic values (n=3) of the ratio between the radioactivity in the organic and the PBS phase. Results are means±standard deviation from a minimum of two separate experiments. ^177Lu/^68Ga-labeled Pentixather, which is a known CXCR4-directed endoradiotherapeutic agent, is used as reference molecule.

For data set [3], the system named is CXCR4-tropic X4-HIV-1 (NL4-3). Type of data set: cell-based. To be noted: CXCR4-tropic X4- (NL4-3).
The test system of data set [4] is CXCL12 induced Ca2+-signalling. Description: Ca++ signaling in BCR-ABL-transformed murine bone marrow cells. Type of data set: cell-based. The note with it: 1 μM. The protocol:
Fifth, it was shown that the peptide derivatives inhibit calcium-signaling. CXCL12 stimulation of CXCR4 expressing B-cells leads to a strong calcium-release. In the presence of CXCR4 antagonists this response is reduced.
For calcium measurement, 1×10^6 BCR-ABL-transformed murine bone marrow cells were incubated with 5 μg/mL of Indo-1 (Molecular Probes) and 0.5 μg/mL of pluronic F-127 (Molecular Probes) in Iscove's medium supplemented with 1% FCS (Pan Biotech) at 37° C. for 45 min. Cells were then washed by centrifugation and the cell pellets were resuspended in Iscove's medium with 1% FCS and treated with the EPI-X4 derivatives (1 μM or 0.5 μM) for 10 minutes at room temperature. Cells were pre-warmed for 5 minutes at 37° C. Calcium flux was assessed by FACS measurement at BD LSR Fortessa. After 30 seconds of baseline recording, CXCR4-dependent calcium signaling was determined by stimulating with 100 ng/ml of mouse SDF-1a (PeproTech).

The test system of data set [5] is CXCL12 induced migration of T-cells. Description: Migration assay (transwell, Jurkat cells). Format: cell-based. The protocol:
For each peptide, three independent experiments were performed. The error bars refer to the standard deviation.
Migration assay. Migration assays were performed using 96-well transwell assay plates (Corning Incorporated, Kennebunk, Me., USA) with 5 μm polycarbonate filters. […] Next, 75 μL (0.5×10^5 cells) of Jurkat cells (in assay buffer), together with/without the compounds, were added into the upper chambers. After 4 h at 37° C. (5% CO2), 100 μL of the lower chambers were transferred to a fresh 96 V-well plate and analyzed with Cell-Titer-Glo® assay (Promega, Madison, Wis., USA). The percentage of migrated cells was calculated as described by Balabanian et al. (2005). In order to obtain the relative migration in %, the percentage of migrated cells were normalized to the CXCL12-only control.

The conditions of data set [6]: mice, i.v. tail vein, 4 hours post injection.
Protocol: Peptides were injected into the tail vein of mice. 4 hours post injection, mice were sacrificed and blood taken by heart punctation. Plasma was obtained by centrifugation and tested for remaining activity in antibody competition assay. As control, peptide was spiked into native plasma (ex vivo). IC50 values were determined by non-linear regression assuming 1.8 ml in vivo blood volume. Remaining activity was determined by IC50 (ex vivo)/IC50 (in vivo)×100. The tested peptides included JM #143 (SEQ ID NO.: 54), JM #144 (SEQ ID NO.: 55), JM #192 (SEQ ID NO.: 89), JM #180 (SEQ ID NO.: 77), JM #194 (SEQ ID NO.: 91), JM #235 (SEQ ID NO.: 130), JM #198 (SEQ ID NO.: 95), JM #255 (SEQ ID NO.: 150), JM #257 (SEQ ID NO.: 152) and JM #204 (SEQ ID NO.: 99). […] Shown are data from 2 individual mice measured in duplicates.
In vivo stability assay. 100 μl of a 700 μg/ml stock solution of the peptide in 0.9% NaCl was intravenously injected in the tail vein of C57BL/6NCrl (BL6) mice. 4 hours post injection, mice were killed by cervical dislocation. Mouse plasma was obtained by heart punctation. Blood was 19:1 diluted with 0.16 M NaEDTA and centrifuged at 2000×g for 20 min at 4° C. to obtain plasma. Plasma was stored at −80° C. till remaining peptide activity in the plasma was determined by 12G5 antibody competition assay.
A short description of data set [7]: Stability assay in human S9 liver fractions. To be noted: with cofactors.
Protocol: Further, the stability of peptides in human S9 liver fractions (in the presence of cofactors) was tested (FIG. 12). […] To simulate and predict hepatic metabolic clearance, peptides were added to human S9 liver fractions. […] For each peptide, three independent experiments were performed.
Stability assay in human S9 liver fractions. Pooled human liver S9 fractions were obtained from Thermo Fisher Scientific at a total protein concentration of 20 mg/ml. Fractions were stored in 25 μl aliquots at −80° C. For stability experiments, they were diluted to a final concentration of 0.5 mg/ml in Tris buffer. Cofactors (or buffer) were added immediately before start of the experiment (NADPH: 1 mM, UDPGA: 0.5 mM, GSH: 2.5 mM, PAPS: 0.05 mg/ml, Sigma Aldrich). The reaction was started by adding peptides or compounds at a concentration of 20 μM to the mixture and gentle agitation at 37° C. Determination of enzymatic stability was performed as described for plasma.
A short description of data set [8]: Functional stability assay in human plasma. In outline: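 EPI-X4 derivatives at 20 μM final in pooled human plasma or whole blood (EDTA), incubated at 37 °C with shaking for 2 or 8 h. Residual activity was measured by 12G5-APC antibody competition on CXCR4 and compared with a non-incubated t=0 sample. Blood samples were centrifuged to remove cells before the competition assay.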

The test system of data set [9] is CXCL12-induced AKT signaling. Description: ERK/AKT signaling assay in SupT1 cells: AKT phosphorylation. Type of data set: cell-based. The note with it: 10 μM. In outline: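 SupT1 cells in 1% FCS medium preincubated 15 min at 37 °C with compound, then stimulated 2 min with CXCL12 (100 ng/ml final). PFA-fixed, methanol-permeabilized cells stained for phospho-ERK1/2 (Tyr204/Tyr187) or phospho-AKT (Ser473) and read by flow cytometry; two or three independent experiments in triplicate.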

The subject of data set [10] is CXCL12-induced ERK signaling. Description: ERK/AKT signaling assay in SupT1 cells: ERK phosphorylation. Format: cell-based. To be noted: 1 μM. The protocol: Third, the activity of the claimed EPI-X4 derivatives was tested by the effect on CXCL12/CXCR4-mediated ERK (Extracellular-signal Regulated Kinases) and AKT (a serine/threonine-protein kinase) signaling (FIG. 3). In that assay CXCR4 expressing cells are stimulated with the CXCR4 chemokine-ligand CXCL12, which subsequently leads to phosphorylation of ERK and AKT. Preincubation of cells with CXCR4-antagonists blocks those pathways. […] Two or three independent experiments were carried out in triplicates for each peptide in each assay. The error bars refer to the standard deviation.
ERK/AKT signaling assay. CXCL12 induced ERK and AKT phosphorylation was determined in SupT1 cells. For this, 100,000 cells were seeded per well in a 96-V well plate in 100 μl medium supplemented with 1% FCS. Cells were incubated for 2 hours at 37° C. before 5 μl of compounds were added. After 15 min incubation at 37° C. cells were stimulated by adding 5 μl CXCL12 diluted in PBS to reach a final concentration of 100 ng/ml. Cells were further incubated for 2 min before the reaction was stopped by adding 20 μl of 10% PFA. Cells were fixed for 15 min at 4° C. before PFA was removed and cells permeabilized by adding 100 μl ice cold methanol. After 15 min at 4° C. the methanol was removed, cells were washed and 30 μl primary antibody was added (phospho-p44/42 MAPK (Erk1) (Tyr204)/(Erk2) (Tyr187) (D1H6G) mouse mAb #5726; phosphor-Akt (Ser473) (193H12) rabbit mAb #4058 Cell Signaling) for 1 hour at 4° C. After the antibody was removed and cells were washed secondary antibody was added for 30 min. Cells were washed afterwards and subsequently analyzed by flow cytometry.

In the case of “[^177Lu]Lu-DOTA-K-JM#122: ^177Lu-labeled DOTA-K-JM #122 (SEQ ID NO.: 102) (ILRWSRKLPSVSK(DOTA); also: 177Lu complex of DOTA)”, the Radiochemical purity is recorded as 97 ± 0% in data set [1] (time point 0 h); 97 ± 0% in data set [1] (time point 1 h); 96 ± 1% in [1] (time point 2 h); 96 ± 1% in data set [1] (time point 4 h); 78 ± 1% in data set [1] (time point 24 h); 78±1% in [1] (time point 24 h, listed as [^177Lu]Lu-DOTA-K-JM #207). Also, the figures for the “log DO/PBS pH7.4” value in [2] and in data set [2] (listed as [^177Lu]Lu-DOTA-K-JM #122) were −3.23 ± 0.23 and −3.23±0.23, respectively.
As to “[^177Lu]Lu-DOTA-K-JM#21: ^177Lu-labeled DOTA-K-JM #21 (SEQ ID NO.: 101) (ILRWSRKLPCVSK(DOTA); also: 177Lu chelated)”, the Radiochemical purity was 93 ± 3% in [1] (time point 1 h), 92 ± 6% in data set [1] (time point 2 h), 90 ± 7% in [1] (time point 4 h) and 62 ± 13% in data set [1] (time point 24 h). Also, the “log DO/PBS pH7.4” value in data set [2] is listed as −1.91 ± 0.24.
What is called IC50 is the concentration that inhibits the measured activity by half. Low values mean inhibition by little substance, high ones a need for much substance. As for `CCCCCCCCCCCCCCCC(=O)N[C@@H](CCC(=O)O)C(=O)NCCCC[C@H](NC(=O)[C@H](CCCNC(=N)N)NC(=O)[C@H](CO)NC(=O)[C@H](Cc1c[nH]c2ccccc12)NC(=O)[C@H](CCCNC(=N)N)NC(=O)[C@H](CC(C)C)NC(=O)[C@@H](N)[C@@H](C)CC)C(N)=O` [JM #192, ILRWSRK(Glu-Pal)-NH2] (H-ILRWSRK([Glu-Palmitoyl])-NH2; N-terminus assumed), the IC50 in [3] was found to be 2 nM. Also, the “reduction of CXCL12 induced calcium-signaling” value in [4] is on record as “almost completely blocked calcium-signaling”. Moreover, in [5], the “inhibition of CXCL12 induced migration of T-cells (in words)” value is given as “high activity”. In data set [6], the “remaining activity in plasma in vivo 4 hours post injection” value is recorded as “completely lost”. For the same molecule, in data set [7], the “remaining activity in human S9 liver fractions after 2 hours” value is reported as “faster inactivation” and the “remaining activity in human S9 liver fractions after 8 hours” value was “more rapidly degraded compared to their N-terminally modified variants”.
Take “[^177Lu]Lu-DOTA-JM#118: ^177Lu-labeled DOTA-JM #118 (SEQ ID NO.: 166) (ILRWSRK(DOTA)-NH2; also: 177Lu complex of DOTA)”: the Radiochemical purity stood at 99 ± 0% in data set [1] (time point 0 h); 98 ± 0% in data set [1] (time point 1 h); 97 ± 1% in data set [1] (time point 2 h); 95 ± 1% in data set [1] (time point 4 h); 80 ± 2% in data set [1] (time point 24 h); 80±2% in data set [1] (time point 24 h, listed as [^177Lu]Lu-DOTA-JM #118). Moreover, in data set [2], the “log DO/PBS pH7.4” value was −3.12 ± 0.43.
With “[^177Lu]Lu-DOTA-K-JM#29: ^177Lu-labeled DOTA-K-JM #29 (SEQ ID NO.: 165) ([dL]LRWSRKMPCVSK(DOTA); also: 177Lu complex of DOTA)”, the Radiochemical purity in data set [1] (time point 0 h) is recorded as 98 ± 1%; in [1] (time point 1 h), 96 ± 3%; in data set [1] (time point 2 h), 92 ± 9%; in data set [1] (time point 4 h), 90 ± 9%. Also, the “log DO/PBS pH7.4” value in data set [2] is −1.49 ± 0.29.
`CC[C@@H](C)[C@@H](N)C(=O)N[C@@H](CC(C)C)C(=O)N[C@@H](CCCNC(=N)N)C(=O)N[C@@H](Cc1c[nH]c2ccccc12)C(=O)N[C@@H](CO)C(=O)N[C@@H](CCCNC(=N)N)C(=O)N[C@@H](CCCCN)C(N)=O` [JM #173, d-ILRWSRK-NH2] (H-[dI]LRWSRK-NH2): in data set [8] (human plasma, 8 hours), the “remaining (relative) activity after 8 hours of plasma incubation” value is 100%. The “functional stability in human plasma (in words)” value in data set [8] (human, plasma) is given as “completely resistant to plasma enzymes”. In addition, in data set [7], the “remaining activity in human S9 liver fractions after 8 hours” value is reported as “about 14%”.
In the case of `CC[C@H](C)[C@H](N)C(=O)N[C@H](C(=O)N[C@@H](CCCNC(=N)N)C(=O)N[C@@H](Cc1c[nH]c2ccccc12)C(=O)N[C@@H](CO)C(=O)N[C@@H](CCCCN)C(=O)N[C@@H](CCCCN)C(=O)N[C@H](C(=O)N1CCC[C@H]1C(=O)N[C@@H](CS)C(=O)N[C@H](C(=O)N[C@@H](CO)C(=O)O)C(C)C)C(C)C)C(C)C` [WSC02, reference compound] (H-IVRWSKKVPCVS-OH; C-terminus assumed), in [9], the “reduction of CXCL12-induced AKT signaling” value is given as “about 50%”. For the same molecule, the “reduction of CXCL12-induced ERK signaling” value in data set [10] turned out to be 20%. In addition, the “remaining (relative) activity after 2 hours of plasma incubation” value in data set [8] (human plasma, 2 hours) is “completely inactive”. The “remaining activity in human S9 liver fractions after 2 hours” value in [7] is “readily inactivated by liver enzymes”.

These data come from patent US20230131339A1, “EPI-X4 BASED PEPTIDES AND DERIVATIVES THEREOF” (Universitaet Ulm, priority 2020, published 2023).
